Data taken from patent US20180193423A1 (LONGEVITY BIOTECH, published 2018).
Where two headings read alike, the source gives them in different places. Primed or numbered codes have the meaning given here. Where no end group is shown, it is not given here. [ ]: non-standard residue; d: D form. APC″ = 3-aminopyrrolidine-4-carboxylic acid (cyclic β-amino acid); ACPC″ = 2-aminocyclopentanecarboxylic acid (x in the sequences); APC = 3-aminopyrrolidine-4-carboxylic acid; ACPC = 2-aminocyclopentanecarboxylic acid; β3hT = C[C@@H](O)[C@H](N)CC(=O)O; β3hN = NC(=O)C[C@H](N)CC(=O)O; β3hL = CC(C)C[C@H](N)CC(=O)O; β3hK = NCCCC[C@H](N)CC(=O)O; β3hV = CC(C)[C@H](N)CC(=O)O; β3hD = NC(CC(=O)O)CC(=O)O; β3hS = N[C@@H](CO)CC(=O)O; Aib = CC(C)(N)C(=O)O; βAla = NCCC(=O)O

Tests used:
Experiment in all cases: cell-based or functional assay
VPAC1 receptor [1] = target: T1, VPAC1 receptor (UniProt P32241 31-457, limits assumed)
T1 sequence (looked up): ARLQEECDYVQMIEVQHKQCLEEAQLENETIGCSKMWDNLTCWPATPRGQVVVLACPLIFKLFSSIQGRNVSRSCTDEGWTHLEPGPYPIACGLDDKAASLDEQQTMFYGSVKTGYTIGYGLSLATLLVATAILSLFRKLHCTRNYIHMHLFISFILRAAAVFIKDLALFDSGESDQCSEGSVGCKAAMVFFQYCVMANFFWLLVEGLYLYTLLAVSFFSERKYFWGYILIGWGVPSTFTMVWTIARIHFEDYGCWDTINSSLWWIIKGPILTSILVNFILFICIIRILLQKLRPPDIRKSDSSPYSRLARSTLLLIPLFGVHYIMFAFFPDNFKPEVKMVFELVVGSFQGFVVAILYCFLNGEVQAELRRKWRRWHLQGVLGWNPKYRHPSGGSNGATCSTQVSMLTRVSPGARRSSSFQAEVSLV

VPAC2 receptor [2] = target: T2, VPAC2 receptor (UniProt P41587 24-438, limits assumed)
T2 sequence (looked up): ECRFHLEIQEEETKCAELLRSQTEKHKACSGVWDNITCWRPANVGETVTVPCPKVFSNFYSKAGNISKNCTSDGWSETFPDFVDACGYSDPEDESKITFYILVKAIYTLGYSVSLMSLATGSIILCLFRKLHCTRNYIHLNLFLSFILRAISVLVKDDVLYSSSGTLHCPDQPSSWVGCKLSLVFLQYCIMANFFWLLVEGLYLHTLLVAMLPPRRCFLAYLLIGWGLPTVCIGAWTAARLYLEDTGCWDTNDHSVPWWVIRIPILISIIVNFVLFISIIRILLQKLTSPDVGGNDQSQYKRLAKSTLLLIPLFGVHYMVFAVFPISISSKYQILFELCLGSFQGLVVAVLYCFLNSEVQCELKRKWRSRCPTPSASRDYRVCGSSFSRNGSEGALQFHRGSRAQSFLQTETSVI

VPAC1 receptor [3] = target: T1, VPAC1 receptor; remark: listed apart in the source
VPAC2 receptor [4] = target: T2, VPAC2 receptor; remark: listed apart in the source
VPAC1 receptor [5] = target: T1, VPAC1 receptor; remark: listed apart in the source

Binder	EC 50 vpac1 (Molar), cell-based cAMP assay (VPAC1 receptor [1]) [µM]	EC50 vpac2 (Molar), cell-based cAMP assay (VPAC2 receptor [2]) [µM]	EC 50 vpac1 (Molar), cell-based cAMP assay (VPAC1 receptor [3]) [µM]	EC50 vpac2 (Molar), cell-based cAMP assay (VPAC2 receptor [4]) [pM]	EC50 of ligand mediated receptor internalization (chemiluminescent signal, PathHunter eXpress CHO-K1 VIPR1 cells) (VPAC1 receptor [5]) [µM]
HS[β3hD]AVF[β3hT]DNY[β3hT]RLR[β3hK]QLA[β3hV]KKY[β3hL]NAI[β3hL]N (not fully specified (C-terminus); printed as HSdAVFtDNYtRLRkQLAvKKYlNAIlN) [LBT-V107]	> 1	> 1	–	–	–
Ac-HSDAVFTDNYTRLRKQ[ACPC″]AAK[APC″]YL[ACPC″]SIK[β3hN]KRY (not fully specified (C-terminus); printed as Ac-HSDAVFTDNYTRLRKQxAAKzYLxSIKnKRY) [LBT-V221]	–	–	0.000195	78.5	–
H[dF]DA[β3hV]FTDNY[β3hT]RLR[β3hK]QLA[β3hV]KKY[β3hL]NAI[β3hL]N (not fully specified (C-terminus); printed as HfDAvFTDNYtRLRkQLAvKKYlNAIlN) [LBT-V128]	0.0712	0.0503	–	–	–
H[β3hS]DA[β3hV]FTD[β3hN]Y[β3hT]RLR[β3hK]QLA[β3hV]KKY[β3hL]NAI[β3hL]N (not fully specified (C-terminus); printed as HsDAvFTDnYtRLRkQLAvKKYlNAIlN) [LBT-V106]	298	0.503	–	–	–
H[dF]DA[ACPC]FTDNY[β3hT]RLR[β3hK]QLA[β3hV]KKY[β3hL]NAI[β3hL]N (not fully specified (C-terminus); printed as HfDAxFTDNYtRLRkQLAvKKYlNAIlN) [LBT-V127]	0.0893	> 1	–	–	–
H[dF][β3hD]AVF[β3hT]DNY[β3hT]RLR[β3hK]QLA[β3hV]KKY[β3hL]NAI[β3hL]N (not fully specified (C-terminus); printed as HfdAVFtDNYtRLRkQLAvKKYlNAIlN) [LBT-V130]	0.912	0.609	–	–	–
H[ACPC]DA[ACPC]FTDNY[β3hT]RLR[β3hK]QLA[β3hV]KKY[β3hL]NAI[β3hL]N (not fully specified (C-terminus); printed as HxDAxFTDNYtRLRkQLAvKKYlNAIlN) [LBT-V103]	0.000358	0.0796	–	–	–
HSDAVFTDNY[β3hT]RLR[β3hK]QLA[β3hV]KKY[β3hL]NAI[β3hL]N (not fully specified (C-terminus); printed as HSDAVFTDNYtRLRkQLAvKKYlNAIlN) [LBT-V101]	0.00217	8260	–	–	0.0102
H[ACPC]DA[β3hV]FTDNY[β3hT]RLR[β3hK]QLA[β3hV]KKY[β3hL]NAI[β3hL]N (not fully specified (C-terminus); printed as HxDAvFTDNYtRLRkQLAvKKYlNAIlN) [LBT-V104]	0.00443	0.262	–	–	–
H[dF]DAVFTDNY[β3hT]RLR[β3hK]QLA[β3hV]KKY[β3hL]NAI[β3hL]N (not fully specified (C-terminus); printed as HfDAVFTDNYtRLRkQLAvKKYlNAIlN) [LBT-V126]	619	0.344	–	–	–
Ac-HSDAVFTENYTKLRKQ[ACPC]AA[APC]KYL[ACPC]DL[β3hK]KGGT (not fully specified (C-terminus); printed as Ac-HSDAVFTENYTKLRKQxAAzKYLxDLkKGGT) [LBT-V203]	–	–	0.218	180	–
H[dF]DA[β3hV]FTD[β3hN]Y[β3hT]RLR[β3hK]QLA[β3hV]KKY[β3hL]NAI[β3hL]N (not fully specified (C-terminus); printed as HfDAvFTDnYtRLRkQLAvKKYlNAIlN) [LBT-V129]	> 1	0.989	–	–	–
Ac-H[Aib]DAVFTENYTKLRKQLAA[APC]KY[ACPC]NDL[β3hK]KG[βAla]T (not fully specified (C-terminus); printed as Ac-HBDAVFTENYTKLRKQLAAzKYxNDLkKGgT) [LBT-V204]	–	–	0.516	529	–
H[β3hS]DA[β3hV]FTDNY[β3hT]RLR[β3hK]QLA[β3hV]KKY[β3hL]NAI[β3hL]N (not fully specified (C-terminus); printed as HsDAvFTDNYtRLRkQLAvKKYlNAIlN) [LBT-V105]	0.0644	0.716	–	–	–
Ac-HSDAVFTENYTKLRKQ[ACPC″]AAK[APC″]YL[ACPC″]DLK[β3hK]GGT (not fully specified (C-terminus); printed as Ac-HSDAVFTENYTKLRKQxAAKzYLxDLKkGGT) [LBT-V220]	–	–	0.00951	422	–
H[ACPC]DAVFTDNY[β3hT]RLR[β3hK]QLA[β3hV]KKY[β3hL]NAI[β3hL]N (not fully specified (C-terminus); printed as HxDAVFTDNYtRLRkQLAvKKYlNAIlN) [LBT-V102]	0.00566	4.9	–	–	–
